The results in this text go back to article PMC3124497.

The target of test [1] is HIV-1 JR-FL Env trimer (gp120/gp41) on LAI-chimeric molecular clone virions (HIV-1 isolate JR-FL | HIV-1 isolate LAI).
Test [2] deals with HIV-1 ADA Env trimer (gp120/gp41) on LAI-chimeric molecular clone virions (HIV-1 isolate ADA | HIV-1 isolate LAI).
The target in test [3] is HIV-1 JR-CSF Env trimer (gp120/gp41) on LAI-chimeric molecular clone virions (HIV-1 isolate JR-CSF | HIV-1 isolate LAI) (UniProt P20871).
Test [4] concerns the target HIV-1 ADA Env trimer (gp120/gp41) on LAI-chimeric molecular clone virions (HIV-1 isolate ADA | HIV-1 isolate LAI). The test can be described thus: native gel or EMSA; Blue Native PAGE: virions concentrated 100-fold, 1% DDM for 20 min on ice, 4-16% NativePAGE Bis-Tris gel at RT, Western blot with mAb cocktails to gp120 or to gp41; virions untreated or first incubated 1 h at 37-57°C or up to 96 h at 37°C.

For test [5], the target named is HIV-1 JR2 Env trimer (gp120/gp41) on LAI-chimeric molecular clone virions (HIV-1 isolate JR-FL | HIV-1 isolate LAI). Described as above.
Test [6] has as its target HIV-1 JR-CSF Env trimer (gp120/gp41) on LAI-chimeric molecular clone virions (HIV-1 isolate JR-CSF | HIV-1 isolate LAI) (UniProt P20871). The description is as above.
The target in test [7] is HIV-1 JR-FL Env trimer (gp120/gp41) on LAI-chimeric molecular clone virions (HIV-1 isolate JR-FL | HIV-1 isolate LAI). The description is as above.
In test [8] the target is HIV-1 JR-FL SOS Env trimer (A501C, T605C) on LAI-chimeric molecular clone virions (HIV-1 isolate JR-FL | HIV-1 isolate LAI). The test is described as above.

On to “Four-domain soluble human CD4 (receptor)”, for which the sCD4 IC50: concentration of 4-domain soluble CD4 required to decrease HIV-1 infectivity by 50% (TZM-bl cells) worked out at 1.2 µg/mL in test [1], 0.17 µg/mL in test [2] and 1.1 µg/mL in test [3].
Substance “HIV-1 ADA Env trimer (gp120/gp41) on LAI-chimeric molecular clone virions (complex)” returned a stoichiometry N in test [4] of 3.
As for “HIV-1 JR2 Env trimer (gp120/gp41) on LAI-chimeric molecular clone virions (complex)”, the stoichiometry N in test [5] was determined as 3.
In test [6], “HIV-1 JR-CSF Env trimer (gp120/gp41) on LAI-chimeric molecular clone virions (from UniProt P20871 32-503) (complex)” returned a stoichiometry N of 3.
For “HIV-1 JR-FL Env trimer (gp120/gp41) on LAI-chimeric molecular clone virions (complex)”, in test [7], the stoichiometry N turned out to be 3.
Consider “HIV-1 JR-FL SOS Env trimer (A501C, T605C) on LAI-chimeric molecular clone virions (complex)”, for which the stoichiometry N in test [8] came out at 3.
